Our source for the Kd, kon and koff values is paper PMC8429771.

What is called Kd is the free concentration of one partner at which half of the binding sites on the other are occupied at equilibrium, for simple one-to-one binding. Usually kon stands for a measure of how fast the partners come together.

One experiment addresses Actin (Homo sapiens) (UniProt P60709). The conditions noted are these: cited from earlier work.
The target in experiment [1] is Native bovine (β, γ)-actin, P60712;P63258. The experiment in a line: TIRFM (KD calculated from koff and kon).
The target is the same in experiment [2]. The experiment in a line: single molecule TIRFM assay (linear fit of kobs against CP concentration). The conditions noted are these: Cy5-UTRN261N (10 nM), profilin-actin (2 μM), TMR-CP.
Experiment [3] has the same target. The experiment in a line: TIRFM single-filament re-growth assay after CP washout (mono-exponential fit). The conditions noted are these: Cy5-UTRN261N (10 nM), profilin-actin (2 μM), myotrophin/V1 (20 nM) after CP washout.

For Profilin (from UniProt P07737), in the experiment with Actin (Homo sapiens), the Kd is 19 nM.
On to “Murine heterodimeric capping protein (α1, β2), wildtype (from UniProt P47753;P47757-2) αY277V”, for which the Kd in experiment [1] was 0.3 nM. The substance also had a kon in experiment [2] of 8.68e+06 M⁻¹ s⁻¹. This substance returned a koff in experiment [3] of 2.6 s^-1·10^-3.
